Experiment [1] concerns the target T1, His G3BP1 protein (affinity-purified) (UniProt Q13283 1-466).
T1 construct: G3BP1, recombinant His-tagged protein
The experiment in a line: co-IP; in vitro binding assay with affinity-purified proteins: 4 ug His-SPOP with 0.125, 0.25 or 0.75 ug His G3BP1 in 1 ml pulldown buffer, 4 C, 60 min, then 0.56 ug Myc-DEK; IP with anti-SPOP and protein G agarose; wash 50 mM Tris pH 7.5, 200 mM NaCl. The note with it: both partners purified.

Experiment [2] addresses T2, Myc-DEK protein (affinity-purified) (UniProt P35659 1-375).
T2 construct: DEK, recombinant Myc-tagged protein
T2 sequence (looked up): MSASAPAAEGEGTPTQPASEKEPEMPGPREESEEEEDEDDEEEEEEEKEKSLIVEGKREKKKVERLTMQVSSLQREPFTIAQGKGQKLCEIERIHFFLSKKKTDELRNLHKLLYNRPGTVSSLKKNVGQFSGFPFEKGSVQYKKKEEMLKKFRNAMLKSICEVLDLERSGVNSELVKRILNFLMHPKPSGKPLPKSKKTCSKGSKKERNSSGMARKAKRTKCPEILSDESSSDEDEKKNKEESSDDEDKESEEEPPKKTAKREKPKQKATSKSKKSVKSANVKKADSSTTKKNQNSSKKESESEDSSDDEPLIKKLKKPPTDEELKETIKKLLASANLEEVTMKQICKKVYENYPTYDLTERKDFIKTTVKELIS
The description is as above. The note with it: both partners purified.

In experiment [3] the target is T3, Speckle-type POZ protein (SPOP), endogenous in 22Rv1 cells (human (endogenous in 22Rv1), UniProt O43791 1-374).
T3 construct: SPOP, endogenous protein of human 22Rv1 prostate cancer cells; also called endogenous SPOP; source: endogenous, 22Rv1 lysate or cells
As to the kind of experiment: proximity ligation; 22Rv1 cells transfected with FLAG-G3BP1 constructs; Duolink II kit, antibodies against FLAG-M2 and SPOP (endogenous); percentage of cells with signal. The note with it: partners not purified.

B1: His-SPOP protein (affinity-purified) (natural protein, UniProt O43791 1-374, looked up)
chain: MSRVPSPPPPAEMSSGPVAESWCYTQIKVVKFSYMWTINNFSFCREEMGEVIKSSTFSSGANDKLKWCLRVNPKGLDEESKDYLSLYLLLVSCPKSEVRAKFKFSILNAKGEETKAMESQRAYRFVQGKDWGFKKFIRRDFLLDEANGLLPDDKLTLFCEVSVVQDSVNISGQNTMNMVKVPECRLADELGGLWENSRFTDCCLCVAGQEFQAHKAILAARSPVFSAMFEHEMEESKKNRVEINDVEPEVFKEMMCFIYTGKAPNLDKMADDLLAAADKYALERLKVMCEDALCSNLSVENAAEILILADLHSADQLKTQAVDFINYHASDVLETSGWKSMVVSHPHLVAEAYRSLASAQCPFLGPPRKRLKQS
notes: SPOP, recombinant His-tagged protein
With B1, the binding result in experiment [1] and in experiment [2] was “binds” throughout.

B2: FLAG-G3BP1^RRM (22Rv1) (domain or fragment, UniProt Q13283 338-466, looked up)
chain: DSHQLFIGNLPHEVDKSELKDFFQSYGNVVELRINSGGKLPNFGFVVFDDSEPVQKVLSNRPIMFRGEVRLNVEEKKTRAAREGDRRDNRLRGPGGPRGGLGGGMRGPPRGGMVQKPGFGVGRGLAPRQ
notes: also called FLAG-RRM; G3BP1^RRM-RGG; source: 22Rv1, transfected, in cells or lysate
In the case of B2, in experiment [3], the “percentage of cells with PLA positive signal” value came to 70%.

For the origin of these results see PMC8602290, “G3BP1 inhibits Cul3^SPOP to amplify AR signaling and promote prostate cancer” (Nature Communications, 2021).
